Assay results published in patent US20050064507.

Legend:
[1] = biological target: T1, prostaglandin E receptor 4 peptide DFRRRRSFRRIA (SEQ ID NO:186) (not fully specified)
T1 chain: DFRRRRSFRRIA

[2] = biological target: T2, DAP-kinase 1 peptide KKRRTKSSRRGV (SEQ ID NO:175) (not fully specified)
T2 chain: KKRRTKSSRRGV

[3] = biological target: T3, S1P1 receptor peptide RTRSRRLTFRK (SEQ ID NO:169) (not fully specified)
T3 chain: RTRSRRLTFRK

[4] = biological target: T4, forkhead (Drosophila)-like 16 peptide RRERSRSRRKQ (SEQ ID NO:176) (not fully specified)
T4 chain: RRERSRSRRKQ

[5] = biological target: T5, MAST3 peptide ARRSKRSRRRET (SEQ ID NO:183) (not fully specified)
T5 chain: ARRSKRSRRRET

[6] = biological target: T6, serine/threonine-protein kinase PRP4 peptide GRRRRSRSKVK (SEQ ID NO:189) (not fully specified)
T6 chain: GRRRRSRSKVK

[7] = biological target: T7, WNK1 peptide RRRRPTKSKGSK (SEQ ID NO:198) (not fully specified)
T7 chain: RRRRPTKSKGSK

[8] = biological target: T8, CLK3 peptide RWKRRRSYSREH (SEQ ID NO:196) (not fully specified)
T8 chain: RWKRRRSYSREH

[9] = biological target: T9, nucleolar phosphoprotein p130 peptide TKKKRGSYRGGS (SEQ ID NO:182) (not fully specified)
T9 chain: TKKKRGSYRGGS

[10] = biological target: T10, CLK2 peptide RRRRSRTFSRS (SEQ ID NO:178) (not fully specified)
T10 chain: RRRRSRTFSRS

[11] = biological target: T11, PCTK2 peptide KKFKRRLSLTLR (SEQ ID NO:185) (not fully specified)
T11 chain: KKFKRRLSLTLR

[12] = biological target: T12, FLJ20719 peptide RRGRRSTKKRRR (SEQ ID NO:171) (not fully specified)
T12 chain: RRGRRSTKKRRR

[13] = biological target: T13, serine/threonine-protein kinase PRP4 peptide TKKRSKSRSKER (SEQ ID NO:215) (not fully specified)
T13 chain: TKKRSKSRSKER

[14] = biological target: T14, SOLH peptide PLRRRESMHVEQ (SEQ ID NO:210) (not fully specified)
T14 chain: PLRRRESMHVEQ

[15] = biological target: T15, BTK peptide ERGRRGSKKGSI (SEQ ID NO:188) (not fully specified)
T15 chain: ERGRRGSKKGSI

[16] = biological target: T16, absent in melanoma 1 peptide RSGRRRGSQKS (SEQ ID NO:173) (not fully specified)
T16 chain: RSGRRRGSQKS

[17] = biological target: T17, GPR105 peptide KSSRNSTSVKKK (SEQ ID NO:206) (not fully specified)
T17 chain: KSSRNSTSVKKK

[18] = biological target: T18, TIAM1 peptide AMSRSASKRRSR (SEQ ID NO:168) (not fully specified)
T18 chain: AMSRSASKRRSR

[19] = biological target: T19, supervillin peptide VMKRKFSLRAAE (SEQ ID NO:202) (not fully specified)
T19 chain: VMKRKFSLRAAE

[20] = biological target: T20, MAST4 peptide VRRSKKSKKKES (SEQ ID NO:203) (not fully specified)
T20 chain: VRRSKKSKKKES

[21] = biological target: T21, NKTR peptide RSRSYSRSRSR (SEQ ID NO:211) (not fully specified)
T21 chain: RSRSYSRSRSR

[22] = biological target: T22, serine/threonine-protein kinase PRP4 peptide RGRRSRSRLRRR (SEQ ID NO:199) (not fully specified)
T22 chain: RGRRSRSRLRRR

[23] = biological target: T23, LRMP peptide RFSRRSSSWRIL (SEQ ID NO:204) (not fully specified)
T23 chain: RFSRRSSSWRIL

[24] = biological target: T24, PSCDBP peptide FLRRSSSRRNRS (SEQ ID NO:180) (not fully specified)
T24 chain: FLRRSSSRRNRS

[25] = biological target: T25, CHD1 peptide EGRRSRSRRYSG (SEQ ID NO:205) (not fully specified)
T25 chain: EGRRSRSRRYSG

[26] = biological target: T26, IDN3 peptide VSRPRKSRKRVD (SEQ ID NO:208) (not fully specified)
T26 chain: VSRPRKSRKRVD

[27] = biological target: T27, HePTP peptide EQQRRALSFRQ (SEQ ID NO:200) (not fully specified)
T27 chain: EQQRRALSFRQ

[28] = biological target: T28, WNK1 peptide RRRRHTMDKDSR (SEQ ID NO:190) (not fully specified)
T28 chain: RRRRHTMDKDSR

[29] = biological target: T29, DOCK2 peptide VKLRRSKKRTKR (SEQ ID NO:170) (not fully specified)
T29 chain: VKLRRSKKRTKR

[30] = biological target: T30, beta-arrestin2 peptide HKRNSVRLVIR (SEQ ID NO:191) (not fully specified)
T30 chain: HKRNSVRLVIR

[31] = biological target: T31, casein kinase I gamma 2 peptide KRRKRKSLQRHK (SEQ ID NO:194) (not fully specified)
T31 chain: KRRKRKSLQRHK

[32] = biological target: T32, CLK2 peptide RRRRRRSRTFSR (SEQ ID NO:177) (not fully specified)
T32 chain: RRRRRRSRTFSR

[33] = biological target: T33, BRCA1 peptide LRRKSSTRHIHA (SEQ ID NO:187) (not fully specified)
T33 chain: LRRKSSTRHIHA

[34] = biological target: T34, BTK peptide PGSSHRKTKK (SEQ ID NO:195) (not fully specified)
T34 chain: PGSSHRKTKK

[35] = biological target: T35, BCL10 peptide SCRTSSRKRAGK (SEQ ID NO:216) (not fully specified)
T35 chain: SCRTSSRKRAGK

[36] = biological target: T36, peptide EEAEHKATKARLADK (SEQ ID NO:75) (not fully specified)
T36 chain: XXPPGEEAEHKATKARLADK

[37] = biological target: T37, myosin IF peptide KKERRRNSINRN (SEQ ID NO:174) (not fully specified)
T37 chain: KKERRRNSINRN

B1: PKC-theta (protein)
chain: MSPFLRIGLSNFDCGSCQSCQGEAVNPYCAVLVKEYVESENGQMYIQKKPTMYPPWDSTFDAHINKGRVMQIIVKGKNVDLISETTVELYSLAERCRKNNGKTEIWLELKPQGRMLMNARYFLEMSDTKDMNEFETEGFFALHQRRGAIKQAKVHHVKCHEFTATFFPQPTFCSVCHEFVWGLNKQGYQCRQCNAAIHKKCIDKVIAKCTGSAINSRETMFHKERFKIDMPHRFKVYNYKSPTFCEHCGTLLWGLARQGLKCDACGMNVHHRCQTKVANLCGINQKLMAEALAMIESTQQARCLRDTEQIFREGPVEIGLPCSIKNEARPPCLPTPGKREPQGISWESPLDEVDKMCHLPEPELNKERPSLQIKLKIEDFILHKMLGKGSFGKVFLAEFKKTNQFFAIKALKKDVVLMDDDVECTMVEKRVLSLAWEHPFLTHMFCTFQTKENLFFVMEYLNGGDLMYHIQSCHKFDLSRATFYAAEIILGLQFLHSKGIVYRDLKLDNILLDKDGHIKIADFGMCKENMLGDAKTNTFCGTPDYIAPEILLGQKYNHSVDWWSFGVLLYEMLIGQSPFHGQDEEELFHSIRMDNPFYPRWLEKEAKDLLVKLFVREPEKRLGVRGDIRQHPLFREINWEELERKEIDPPFRPKVKSPFDCSNFDKEFLNEKPRLSFADRALINSMDQNMFRNFSFMNPGMERLIS
in vitro phosphorylation (% of best substrate) [1]: 50
in vitro phosphorylation (% of best substrate) [2]: 80
in vitro phosphorylation (% of best substrate) [3]: 100
in vitro phosphorylation (% of best substrate) [4]: 66
in vitro phosphorylation (% of best substrate) [5]: 55
in vitro phosphorylation (% of best substrate) [6]: 43
in vitro phosphorylation (% of best substrate) [7]: 28
in vitro phosphorylation (% of best substrate) [8]: 32
in vitro phosphorylation (% of best substrate) [9]: 61
in vitro phosphorylation (% of best substrate) [10]: 65
in vitro phosphorylation (% of best substrate) [11]: 51
in vitro phosphorylation (% of best substrate) [12]: 92
in vitro phosphorylation (% of best substrate) [13]: 12
in vitro phosphorylation (% of best substrate) [14]: 16
in vitro phosphorylation (% of best substrate) [15]: 44
in vitro phosphorylation (% of best substrate) [16]: 85
in vitro phosphorylation (% of best substrate) [17]: 19
in vitro phosphorylation (% of best substrate) [18]: 100
in vitro phosphorylation (% of best substrate) [19]: 24
in vitro phosphorylation (% of best substrate) [20]: 24
in vitro phosphorylation (% of best substrate) [21]: 16
in vitro phosphorylation (% of best substrate) [22]: 27
in vitro phosphorylation (% of best substrate) [23]: 22
in vitro phosphorylation (% of best substrate) [24]: 65
in vitro phosphorylation (% of best substrate) [25]: 22
in vitro phosphorylation (% of best substrate) [26]: 17
in vitro phosphorylation (% of best substrate) [27]: 26
in vitro phosphorylation (% of best substrate) [28]: 40
in vitro phosphorylation (% of best substrate) [29]: 98
in vitro phosphorylation (% of best substrate) [30]: 38
in vitro phosphorylation (% of best substrate) [31]: 34
in vitro phosphorylation (% of best substrate) [32]: 66
in vitro phosphorylation (% of best substrate) [33]: 48
in vitro phosphorylation (% of best substrate) [34]: 33
in vitro phosphorylation (% of best substrate) [35]: 11
Peptide phosphorylation by PKC-theta [36]: 0
in vitro phosphorylation (% of best substrate) [37]: 83
